From article PMC4351549

Biological target: CeHSP17 protein (small heat shock protein from Caenorhabditis elegans) (Caenorhabditis elegans)
Experiment: cryo-EM structure; single particle 3D reconstruction, 14,217 particles, images obtained at 4°C, tetrahedral symmetry, 14.5 Å

stoichiometry N: 24 subunits
Substance: CeHSP17 protein (small heat shock protein from Caenorhabditis elegans) (natural protein)
